Assay results published in patent publication US20260008856A1 (BLUEFIN BIOMEDICINE, published 2026).
Residue numbers refer to the chain shown, from its start.

B1: 32C12-N26S (antibody, V domains shown)
VH: QVQLVESGGGVVQPGRSLRLSCAASGFTFRNYGIHWVRQAPGKGLEWVAVIWYDGSNKFYADSVKGRFTISRDNSKNTLYLQMNSLRVEDTAVYYCAREEGIAVAPFDYWGQGTLVTVSS
VL: DIQMTQSPSSLSASVGDRVAITCRASQSIASYLNWYQQKPGKAPKLLIYGASSLQNGVPSRFSGSGSRTDFTLTISSLQPEDFATYYCQQSYSTEITFGQGTRLEIK
notes: Asn26Ser (VL CDR1) variant of 32C12_21A4
B2: 41G4_15B6 (antibody, V domains shown)
VH: B1 VH with I34M
VL: B1 VL with S26N
notes: Recombinant human antibody
B3: 17E9_15B1 (antibody, V domains shown)
VH: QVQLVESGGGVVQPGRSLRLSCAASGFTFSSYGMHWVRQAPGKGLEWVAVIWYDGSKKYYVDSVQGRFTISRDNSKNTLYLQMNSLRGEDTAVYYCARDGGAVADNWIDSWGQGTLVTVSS
VL: DIQMTQSPSSLSASVGDRVTLTCRASQNIRSYLNWYQQKPGKAPKLLIFAASSLPSGVPSRFSGSGSVTDFTLTVSSLQPEDFATYSCQQSYSTPYTFGQGTKLEIK
notes: Recombinant human antibody
B4: 16H2_17D1 (antibody, V domains shown)
VH: EVQLLESGADLVQPGGSLRLSCAASGFTFSSYAMSWVRQAPGKGLEWVSTIRISGGTTYYADSVKGRFTISRDNSKNTLYLQMNSLRAEDTAVYYCVRDYYNGMDVWGQGTTVTVSS
VL: EIVLTQSPATLSLSPGERATLSCRASQRVSSYLAWYQQKPGQAPRLLIYDASNRATGIPARFSGSGSGTDFTLTISSLEPEDFAVYYCQQRSYWPPAFGQGTKLEIK
notes: Recombinant human antibody
B5: 10C8-15A4 (antibody, V domains shown)
VH: B4 VH with V2E, V12A, G56D, Y80F, Q109H
VL: B4 VL
notes: Recombinant human antibody
B6: 26C5_15B4 (antibody, V domains shown)
VH: B4 VH with V2A, A9G, D10G, R52S, I53G, T57S, Y59H, N102Y
VL: B4 VL with R28S, A97T
notes: Recombinant human antibody
B7: 33H2_21B1 (antibody, V domains shown)
VH: EVQVVESGGGLVQPGGSLRLSCATSGFTFRSYWMTWVRQAPGKGLEWVANIKQDGSERHYVDSVKGRFTISRDNAKTSLYLQMSSLRAEDTAMYYCAREGYYGSGYFDYWGQGTLVTVSS
VL: DIQMTQSPSTLSASVGDRVIITCRASQSISRGLAWYQQKPGKAPKLLIYKASNLESGVPSRFSGSGSGTEFTLTISSLQPDDFAAYYCQQYSYYSHTFGQGTKVEIK
notes: Recombinant human antibody
B8: 36A12_21C1 (antibody, V domains shown)
VH: EVQLVESGGGLVQPGGSLRLSCAASGFTLSFYWMTWVRQAPGKGLEWVANIKQDGNEKNYVDSVKGRFTISKDNAKKSVFLQMNSLRAEDTAVYYCAREGYFGSGYFDYWGQGTLVTVSS
VL: B7 VL with I20T, S30N, R31S, G32W, N53T, A85P, Q90H, S92N, Y93S, S95P
notes: Recombinant human antibody
B9: 34C11_21B2 (antibody, V domains shown)
VH: B7 VH with T24A, T35S, M93V, Y102F
VL: B7 VL with V104L
notes: Recombinant human antibody
B10: 40C3_22B6 (antibody, V domains shown)
VH: B8 VH with Y60F, K72R
VL: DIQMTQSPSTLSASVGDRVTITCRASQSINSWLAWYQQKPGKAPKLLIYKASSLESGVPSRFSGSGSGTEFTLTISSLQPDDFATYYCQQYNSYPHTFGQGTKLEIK
notes: Recombinant human antibody
B11: 42D10_28A5 (antibody, V domains shown)
VH: QVQPKESGPGVVKPSETLSLTCAVSGFPISRGYYWGWIRQPPGKGLEWIGNIFHSGTTYYNPSLKSRVTISVDTSKNQISLKLTSVTAADTAVYYCVGFGDLPHYQYYVMDIWGQGTTVTVSS
VL: EIVLTQSPATLSLSPGERATLSCRASQSVSSYLAWYQQKPGQAPRLLIYDASNRATGIPARFSGSGSGTDFTLTISSLEPEDFAVYYCQQRSNWPPYTFGQGTKLEIK
notes: Recombinant human antibody
B12: 39A9_28A4 (antibody, V domains shown)
VH: QVQLVESGGGVVQPGRSLRLSCAASGFTLSGYGMHWVRQAPGKGLEWVAVIWYDGSNKYYADSVKGRFTISRDNSKNMLFLQMNSLRAEDTAVYYCVRENGFGSGWFFDYWGQGNLVTVSS
VL: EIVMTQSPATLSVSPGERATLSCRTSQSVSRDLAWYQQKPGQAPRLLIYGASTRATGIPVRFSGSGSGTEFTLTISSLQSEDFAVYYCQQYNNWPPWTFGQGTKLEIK
notes: Recombinant human antibody
B13: 32F9_21A5 (antibody, V domains shown)
VH: QLQLVESGGGVVQPGRSLRLSCAASGFTFSSHGMHWVRQAPGKGLEWVAVIWYDGSSEYYADSVKGRFTISRDNSKNTLYLQMNSLRAEDTAVYYCARENVYGSGWFFDYWGQGSLVTVSS
VL: EIVMTQSPATLSVSPGERASLSCRASQSVGSNLAWYQQKPGQAPRLLIFGASTRATGIPARFSGSRSGTEFTLTISSLQSEDFALYYCQQYNNWPPWTFGQGTKLEIK
notes: Recombinant human antibody
B14: 32D4_21D6 (antibody, V domains shown)
VH: B13 VH with H32Y, S115T
VL: B13 VL with L105V
notes: Recombinant human antibody
B15: 31F9_21A1 (antibody, V domains shown)
VH: B13 VH with L2V, V11M, A23T, Y53F, S57N, A61V, S115T
VL: B13 VL with L105V
notes: Recombinant human antibody
B16: 35D11_22A1 (antibody, V domains shown)
VH: B13 VH with H32Y, Y80F, E89D, S115T
VL: B13 VL with N92D
notes: Recombinant human antibody
B17: 33E9_21A6 (antibody, V domains shown)
VH: B13 VH with P14F, S115T
VL: B13 VL
notes: Recombinant human antibody
B18: 10C8_C43A (antibody, V domains shown)
VH: QVQLVESGGGVVQPGRSLRISCAASGFTFRSYGMHWVRQAPGKGLEWVAIIWHDESYKYYVDSVKGRFTISRDNSKNTLYLQMNSLRAEDTAVYYCARGDYYGSGSYYDAFDIWGQGTMVTVSS
VL: DIQMTQSPSSLSASVGDRVIITCRASQGISNYLAWFQQKPGKAPNLLIYAASTLRSGVPSRFSGSGSGTDFTLTISSLQPEDVATYYCQKYNSAPYTFGQGTKVEIK
notes: Cys43Ala variant of 10C8_15A1
B19: 39G1_21C4 (antibody, V domains shown)
VH: QVQLQESGPGLVKPSETLSLTCAVSGYSASGVYYWGWIRQPPGKGLEWIGNIYHSGSTYYNPSLERRVSISLDTSKNHFSLRLNFVTAADTAVYYCARDRFDAFDIWGQGTMVTVSS
VL: EIVMTQSPATLSVSPGERATLSCRASQSINNILAWYQQKPGQAPRLLIYGASTRATGIPARFSGSGSGTEFTLTISSLQSEDFAVYYCQQYNNWPLTFGGGTKVEIK
B20: 34H8_21B4 (antibody, V domains shown)
VH: QVQLQESGPGLVKPSETLSLTCAVSGYSASGLYYWAWIRQPPGKGLEWIGNIYHSGRTYYNPSLESRVSISLDTSKHQVSLKLKSVTYADTAVYFCARDRFDGFDIWGQGTMVTVSS
VL: B19 VL with S28T, V104L
notes: Recombinant human antibody
B21: 34D1_21B3 (antibody, V domains shown)
VH: QGQLVESGGGVVQPGRSLRLSCAASGFTFSSYTLHWVRQAPGKGLEWVAVIWYDGSNKYYVDSVKGRFTISRDNSKNTLYLQMNSLRAEDTAVYYCAREYGSGSYYNVYYGMDVWGQGTTVTVSS
VL: DIVMTQSPLSLPVTPGEPASISCRSSQSLLHSNGYKYLDWYLQKAGQSPHLLIYLGSNRASGVPDRFSGSGSGTDFTLKISRVEAEDVGFYYCMQTLQIPLTFGGGTKLEIK
notes: Recombinant human antibody
B22: 5D12_18A4 (antibody, V domains shown)
VH: QVQLQESGPGLVKPLGTLSLTCAVSGGSISNSNWWSWVRQPPGKGLEWIGEIYHSGSTNYNPSLKSRVTIALDWSKNQFSLQLRSVTAADTAVYYCARYGSGPFGGDCWGQGTLVTVSS
VL: DIQLTQSPSFLSASVGDRVTISCRASQGISSYLAWYQQKPGKAPKLLIYAASTLQGGVPSRFSGSGSGTTFTLTISSLQPEDFATYYCQQLNTYPFTFGPGTKLEIK
notes: Recombinant human antibody
B23: 38G11_28A2 (antibody, V domains shown)
VH: B8 VH with L29F, F31S, T35S, N56S, N59H, K72R, K77N, V79L, F80Y
VL: B22 VL with S22T, G56S, T70E, L91Y, N92S, T93F, P95S, F96H, P100Q
notes: Recombinant human antibody
B24: 5D12_C108Y (antibody, V domains shown)
VH: B22 VH with C108Y
VL: B22 VL
notes: Cys108Tyr (VH) variant of 5D12_18A4

Tests used:
[1] = molecular target: T1, huIL1RAP ECD recombinant protein (human, UniProt Q9NPH3 21-367); test: Octet BLI, antibody on Protein A biosensor, recombinant huIL1RAP ECD
T1 construct: also called recombinant human IL1RAP-ECD; recombinant human IL1RAP; not shown: C-terminal histidine tag for purification
Method: Affinity: The affinity of antibodies to various recombinant IL1RAP protein was determined on an Octet Red™ instrument. After loading reagents into a 96-well plate, the Octet Red™ with Protein A-conjugated biosensors was programmed as follows: 30 seconds for baseline #1; 120 seconds to immobilize the antibody; 30 seconds for baseline #2; 300 seconds for association of antibody to recombinant IL1RAP; and 300-600 seconds for dissociation of recombinant IL1RAP from the antibody.

[2] = molecular target: T2, rat IL1RAP (Met1-Val570 plus Myc-DDK) on transfected 293 cells (Rattus norvegicus, UniProt Q63621 21-570); test: flow cytometry on 293 cells expressing rat IL1RAP (293-puro-ratIL1RAP) vs 293T-puro [cont.]
T2 construct: whole, on cells; also called RR213032
T2 sequence (Q63621 21-570): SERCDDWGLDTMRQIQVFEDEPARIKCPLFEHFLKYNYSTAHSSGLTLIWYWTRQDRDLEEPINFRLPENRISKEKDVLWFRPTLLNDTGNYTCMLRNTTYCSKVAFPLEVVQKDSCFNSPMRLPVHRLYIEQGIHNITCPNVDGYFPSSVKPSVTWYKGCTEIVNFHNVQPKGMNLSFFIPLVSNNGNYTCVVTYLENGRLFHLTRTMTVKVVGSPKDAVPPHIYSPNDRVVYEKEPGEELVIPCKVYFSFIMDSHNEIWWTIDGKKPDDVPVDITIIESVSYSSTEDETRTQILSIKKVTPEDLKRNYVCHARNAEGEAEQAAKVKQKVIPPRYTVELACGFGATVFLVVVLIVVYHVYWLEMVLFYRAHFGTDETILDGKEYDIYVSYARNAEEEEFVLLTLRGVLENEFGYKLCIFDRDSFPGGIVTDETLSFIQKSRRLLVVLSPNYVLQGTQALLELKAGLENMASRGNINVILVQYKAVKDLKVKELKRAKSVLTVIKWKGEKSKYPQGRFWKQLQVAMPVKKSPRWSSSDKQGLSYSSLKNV
Method: Staining for flow cytometry was performed in 1× cold PBS with 0.5% BSA. Primary antibodies (1 ug/ml) were incubated with live cells on ice for 30 minutes, after a brief wash, cells were incubated with Alexa Fluro® 488-conjugated anti-human IgG secondary antibody @1:1000 (709-546-149, Jackson ImmunoResearch). Acquisition of the data was performed on a MACSQuant® Flow Cytometers (Miltenyi Biotec) and analyzed with FlowJo software.

Kd [1]	binding result [2]	Binder
19 nM	–	B1
5 nM	–	B2
21 nM	–	B3
50 nM	–	B4
1 nM	–	B5
127 nM	–	B6
7 nM	–	B7
24 nM	–	B8
0.2 nM	–	B9
23 nM	–	B10
7 nM	–	B11
3 nM	–	B12
2 nM	–	B13
3 nM	–	B14
2 nM	–	B15
3 nM	–	B16
2 nM	–	B17
13 nM	–	B18
1.6 nM	no binding (tested: 1 ug/ml)	B19
5 nM	–	B20
3 nM	–	B21
19 nM	no binding (tested: 1 ug/ml)	B22
29 nM	–	B23
13 nM	–	B24
